Measured values from US20220289828A1.

What was measured:
[1] = target: B1 clade EV-D68 isolate (Enterovirus D68); test: cell-based or functional assay
[2] = target: Enterovirus D68 US/MO/14-18947 virus particle (B1 clade) (Enterovirus D68); test: cryo-EM structure
[3] = target: Enterovirus D68 US/MO/14-18947 virus particle (B1 clade) (Enterovirus D68); test: cryo-EM of Fab with B1 clade virus

B1: mAb EV68-159 (antibody, V domains shown)
VH: EVQLVESGGGLVKPGGSLRLSCAASGFTFSTYIMTWVRQAPGRGLEWVSSISTSSVYTFYADSLKGRFTISRDNAKNSVYLQMNSLRADDTAVYYCAREEGFRAYNLYWGQGTLVTVSS
VL: QSVLTQPPSASGTPGQRVTISCSGSSSNIEYNYVYWYQKFPGTAPKLLIYKNNQRPSGVPDRFSGSKSGTSASLAISGLRSEDEGDYYCAAWDDILSGVVFGGGTKLTVL
IC50 in a CCID50 neutralization assay [1]: 0.32 ng/mL

B2: Fab EV68-159 (Fab, V domains shown)
VH: EVQLVESGGGLVKPGGSLRLSCAASGFTFSTYIMTWVRQAPGRGLEWVSSISTSSVYTFYADSLKGRFTISRDNAKNSVYLQMNSLRADDTAVYYCAREEGFRAYNLYWGQGTLVTVSS
VL: QSVLTQPPSASGTPGQRVTISCSGSSSNIEYNYVYWYQKFPGTAPKLLIYKNNQRPSGVPDRFSGSKSGTSASLAISGLRSEDEGDYYCAAWDDILSGVVFGGGTKLTVL
share of the masked surface area from the heavy chain [2]: 77% | viral surface area masked by each Fab [2]: 990 Å^2 | copies of Fab bound to the virus particle [3]: 60 copies

B3: Fab EV68-228 (Fab, V domains shown)
VH: QVQLQESGPGLVKPSETLSLTCTVSGYLISNGYYWGWIRQSPGKGLEWIGSIYYTRDTYYNWSLKSRITISVDTSKKQFSLKLYSVTAADTAVYYCVRHEGSCNDGSCYGSFVDNWGQGTLVTVSS
VL: DIQMTQSPSSVSASVGDRVTLTCRASQDISSWLAWYQQKPGKAPKLLIYAASSLQSGVPSRFSGSGSGTHFTLTISSLQPEDFATYFCQQADSFITFGGGTKVEIK
share of the masked surface area from the heavy chain [2]: 84% | viral surface area masked by each Fab [2]: 1170 Å^2 | copies of Fab bound to the virus particle [3]: 60 copies
